Experimental data reported in the supplement of paper PMC9170038.

Tested on: MS2 coat protein
Test: apparent KD of MS2 coat protein; designed switch direction (-1 OFF switch, 1 ON switch): -1; higher = weaker reporter binding
Outline: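 The buffer was Tris-HCl pH 7.5 with KCl, MgCl2, BSA, DTT, tRNA and Tween-20. In it, SNAP-549-labelled MS2 coat protein was titrated in doubling steps from 0.7 or 1.5 nM to 3 µM over chip-bound RNA switches transcribed by stalled E. coli RNA polymerase on Illumina chips. Apparent KD is the per-design median over clusters of curve fits to normalised fluorescence.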

[1] = input ligand: microRNA oligo, concentration not stated
[2] = Eterna round: R95, input ligand: microRNA oligo, concentration not stated
[3] = Eterna round: R95, input ligand: FMN 200 uM
[4] = Eterna round: R95, input ligand: none

Sequence | apparent KD of MS2 coat protein (input ligand: FMN 200 uM) [µM] | apparent KD of MS2 coat protein [1] [µM] | apparent KD of MS2 coat protein (input ligand: none) [µM] | apparent KD of MS2 coat protein [2] [µM] | apparent KD of MS2 coat protein [3] [µM] | apparent KD of MS2 coat protein [4] [µM]
AAUAAUCAUGUAGGAUAUGCGUGGCAAAGCUAUGCAGAAGGACAUGAGGAUCACCCAUGUUCUAGCGUCUGCGUACAGAUGCUA [Mat - Exclusion NG 1 - Mod of JL - D80] (Eterna round: R96, puzzle: Exclusion NG 1) | 0.246 | 0.0291 | 0.0372 | – | – | –
UACAUGAGGAUCACCCAUGUUUUGUCGUGUAUGGUAUUUAUCUAGGAUAUCAUUUUAAUUAGUUAUGAGAAGGAGAAUAUUAAU [JMF's solution 87] (Eterna round: R96, puzzle: Exclusion NG 3) | 0.0337 | 0.0244 | 0.0325 | – | – | –
ACAUGUAAUGUAGGAUAUUUUACACAUGAGGAUCACCCAUGUGACCAGAGGCUUUACUAUGAGUAAAAGAAGGGUAUGUACAUG [Ex NG2 #60] (Eterna round: R96, puzzle: Exclusion NG 2) | 0.0696 | 0.0335 | 0.0542 | – | – | –
CUGUGUAGACAGGAUAUGCUGUACAAAAGUACAGCAGAAGGGUCUACAUGAGGAUCACCCAUGUAUACUUCAUG [)mei Ex6 B24] (Eterna round: R97, puzzle: Exclusion 6) | 0.391 | – | 0.92 | – | – | –
GGUGGACAUGAGGAUCACCCAUGUGAGGAUAUCGGCCGGUUCGUGGUGGCUGGCGUCUCGAGAAGGCACAUAGU [Exclusion 1 V69] (puzzle: Exclusion 1) | – | – | – | 0.114 | – | –
GGUCGGCGAGGAUAUACAUGAGGAUCACCCAUGUGAUAGAUUGCACGCGUACGUGUAUGUAGAAGGCGCUGACG [JL-ex3-3.30 salish99 mod] (puzzle: Exclusion 3) | – | – | – | 0.0296 | 0.811 | 0.0328
GCACGGAAUGUAGGAUAUUAGUGCGAUUAGCACUGAGAAGGACAUGAGGAUCACCCAUGUAAUAACAUAAUAAACCUUCCGUGC [Eli exng1 - 046] (Eterna round: R96, puzzle: Exclusion NG 1) | 0.0121 | 0.00827 | 0.0136 | – | – | –
ACUAGAUGAGGAUAUGCAUAUUUUCGUGUUCUUCUAGGUUAACAUGAGGAUCACCCAUGUAGAAGGCGUCUAUU [Exclusion 2 - 23] (puzzle: Exclusion 2) | – | – | – | 0.0186 | – | –
GCUGGAAGAGGAUAUACAUAAGGUGCGUCAGCACCGGGCCUACAUGAGGAUCACCCAUGUAGAAGGCUUCCAGC [EX2 #78] (Eterna round: R97, puzzle: Exclusion 2) | 0.0551 | – | 0.0152 | – | – | –
GUAGAGUCAGGAUAUACGAGAUCGAAAGAUCAGUGAUCCUUACAUGAGGAUCACCCAUGUAGAAGGGACUCUAC [Omei mod 8 to Eli's favorate candidate (ch.parushev)] (Eterna round: R97, puzzle: Exclusion 2) | 0.0419 | – | 0.388 | – | – | –
UUGUUCCAUGUAGGAUAUGCAUAUUCUUAUUAUGCAGAAGGACAUGAGGAUCACCCAUGUAUGUUAUUAUUAUAUGUUACAUGU [Design 1] (Eterna round: R96, puzzle: Exclusion NG 1) | – | 0.0567 | – | – | – | –
GGGCCACAUGAGGAUCACCCAUGUUAGGAUAUUUGUUCGGUGCUAUGAAUUCAAGGCUAGAGAAGGAACAGGGA [Eternabot (L1) Solution 46] (Eterna round: R97, puzzle: Exclusion 1) | 0.0224 | – | 0.023 | – | – | –
AAUAACAGAGGAUAUACUAUUUUAUGUGUUUGUUAUUUUGAACAUGAGGAUCACCCAUGUAGAAGGCUGAUUGA [JMF 77] (puzzle: Exclusion 2) | – | – | – | 0.0411 | – | –
AAAUCGGAGGAGGAUAUCGUACAGGAAACGGUGCGAGAAGGUUUCACAUGAGGAUCACCCAUGUCAAAUAGCGA [EX6 #58] (Eterna round: R97, puzzle: Exclusion 6) | 0.021 | – | 0.0164 | – | – | –
UGUUGUUACGUAGGAUAUUGCCAACAGGCAGUAGGAUAUGCGAAAGCAGAAGGACCGCCAACAGGCGAGAAGGACGGGUUAACA [pwkr exNG2 2xF7 2xFMN.11] (Eterna round: R96, puzzle: Exclusion NG 2) | 0.286 | 0.0315 | 0.389 | – | – | –
AAAUUGCUAGAGGAUAUCGGAUAGAAUUUAUUACGAGAAGGUUAGACAUGAGGAUCACCCAUGUUCUGUUGGGA [EX6 #23] (Eterna round: R97, puzzle: Exclusion 6) | 0.0701 | – | 0.0291 | – | – | –
GAGUACUGAGGAUAUACAUGAGGAUCACCCAUGUGUUCCAGCUAGGAAACUAGCAAAAGUAGAAGGCAGUACUG [salish99_ex3_r3_084] (Eterna round: R96, puzzle: Exclusion 3) | 0.311 | 0.0193 | 0.0232 | – | – | –

Sequence | apparent KD of MS2 coat protein (input ligand: FMN 200 uM) [µM] | apparent KD of MS2 coat protein [1] [µM] | apparent KD of MS2 coat protein (input ligand: none) [µM] | apparent KD of MS2 coat protein [2] [µM] | apparent KD of MS2 coat protein [3] [µM] | apparent KD of MS2 coat protein [4] [µM]
AAGUAGGCAGGAUAUACAUGAGGAUCACCCAUGUGCCCAUGAAAGGUACUUUCGAAAGGUAGAAGGGCCUACAA [ChP 13.04.2015 #5] (puzzle: Exclusion 3) | – | – | – | 0.0146 | – | –
UCGGCGCGAGGAUAUGCGGUUCCUGCUUCGGGCCGGAGCGUACAUGAGGAUCACCCAUGUAGAAGGCGCGCCGC [Apr-15 SS2-38] (puzzle: Exclusion 2) | – | – | – | 0.0121 | – | –
UCAGUUCUGCAAGGAUAUCGUCCUAGUUUGGUACGAGAAGGUGCUUUUGUUUUUUCCUUGUGUUGACAUGAGGAUCACCCAUGU [JL JR Sub53 mod] (Eterna round: R96, puzzle: Exclusion NG 1) | – | 0.0284 | – | – | – | –
ACGCAUUGCCUUUGGUAGUGCGUAACAUGAGGAUCACCCAUGUAGGAUAUGGUAGGCUUUGCUUACCAGAAGGACAUAAUAAUA [Mat - Exclusion NG 3 - Mod of JL - D1] (Eterna round: R96, puzzle: Exclusion NG 3) | 0.0542 | 0.0227 | 0.0266 | – | – | –
AAUAACAGAGGAUAUACUAUUUUAUGUGUUUGUUAUUUUAAACAUGAGGAUCACCCAUGUAGAAGGCUGAUUAA [JMF 44] (Eterna round: R96, puzzle: Exclusion 2) | 0.0477 | 0.0343 | 0.0427 | – | – | –
AAAACACAUGAGGAUCACCCAUGUGAGGAUAUGUUCAUGUUCAGCAAACUGAACAUGAACAGAAGGCACAUAAA [JR_Exclusion1_Sub016] (puzzle: Exclusion 1) | – | – | – | 0.0365 | 0.0447 | 0.0404
AGUACGAUGCGUGCUGACAUGCGUCGUGCAGCAGGUGAUACAUGAGGAUCACCCAUGUCCUCAUUUGCUCGUCUUGA [Mat - Sensor v3 - Turn-off var 2 - D19] (puzzle: Sensor v3, turn-off variant 2) | – | – | – | 0.499 | 0.0285 | 0.0284
AAUAACAAGCAGAUCCUAAACAUGAGGAUCACCCAUGUGUUCGUCUUGUAAAGUACUAUCACGAAAGUGAUAGUACA (Eterna round: R97, puzzle: Sensor, turn-off variant 1) | 0.0687 | – | 0.0662 | – | – | –
CUUGUUUAUGUAGGAUAUGCCUGGCGUGCCUUUGCAGAAGGACAUGAGGAUCACCCAUGUAACAUGAGGCUAACCCUUGUCGCC [salish99_ExNG1_r04_118] (Eterna round: R96, puzzle: Exclusion NG 1) | 0.0867 | 0.0657 | 0.096 | – | – | –
AAGAAACAUGAGGAUCACCCAUGUGAGGAUAUGACCAAGAAAAGAAAAGAAAGAAGAGUCAGAAGGCACAAAGG [salish99-ex1_r3_066] (puzzle: Exclusion 1) | – | – | – | 0.0566 | 0.0997 | 0.181
AAUUUUUGAUACCUUUAAUACAUGAGGAUCACCCAUGUUAUCGAGGAUAUGUAGAUGAAAUGAGAACAGAAGGCGAAGUAAGAG [JR_ExcNG3_Sub099] (Eterna round: R96, puzzle: Exclusion NG 3) | 0.0415 | 0.00324 | 0.0156 | – | – | –
AGUAAGCUAGGAUAUGCUUUGGGAAAGCAUUCCUUCGAUAAACUUGAGGAUCACCCAAGUAGAAGGAGCUAAAU [jl-ex2.4.49 ViennaUCT mod] (Eterna round: R97, puzzle: Exclusion 2) | 0.0175 | – | 0.0154 | – | – | –
UUAAAGUCAGGAUAUACAUGAGGAUCACCCAUGUAAAAUUUUAAUUUAAUUUUAAGGUGUAGAAGGGACAAUUU [Ex3 #2] (Eterna round: R97, puzzle: Exclusion 3) | 0.0298 | – | 0.0311 | – | – | –
UCUCCCUGGCAAGGAUAUCCUGUGCGGUUCCGGCUCGUGUCUGUUACAUGAGGAUCACCCAUGUGGGAGAAGGUGCCUGUGGCU [Design 92] (Eterna round: R96, puzzle: Exclusion NG 2) | 0.346 | 0.0937 | 0.143 | – | – | –
AUCAAAGAAUAUCAUAAGCACAUGAGGAUCACCCAUGUGAUGGGUGAGAGCCUGAAAGCCACUUCUGCUCGUCUUAU [Cac Sensor turn off var1 sub9] (Eterna round: R97, puzzle: Sensor, turn-off variant 1) | 0.969 | – | 0.883 | – | – | –
UUUUUAUAUGAAGGAUAUACUUAACAUGAGGAUCACCCAUGUGGUGUUGUGAGUGAGUGAGUUUAGUAGAAGGUCAAUGAUUUA [JMF's solution 62] (Eterna round: R96, puzzle: Exclusion NG 2) | 1.21 | 0.414 | 0.354 | – | – | –
AUAAUGUAAGGAUAUAUGAAUCACGGUGAUACACCGUGAAGAUAGAAGGUACAUGAGGAUCACCCAUGUAAGGC [Mod of Anonveat 12 - Jieux - Exclusion 4] (Eterna round: R97, puzzle: Exclusion 4) | 0.0121 | – | 0.021 | – | – | –
